Measured values: paper PMC12057666 (Science Advances, 2025)

B1: Es5.127 IgG antibody (antibody, V domains shown)
VH: EVQLVQSGAEVKKPGESLKISCKGSGYRSGYSFSSYWIGWVRQRPGKGLEWMGIIQPGDSDTTYSPSFQGQVTISADKSINTAYLQWSSLKASDTAIYYCARVRGSLKVPAAVPFDPWGQGTLVTVSS
VL: QSVLTQPPSVSAAPGQKVTISCSGSSSNIGNNYVSWYQQFPGIAPKLLIYDNNKRPSGIPDRFSGSKSGTSATLGITGLQTGDEADYYCGTWDSSLSDVVFGGGTKLTVL
notes: source: Freestyle 293-F, transient cotransfection, purified (Protein G Sepharose 4 Fast Flow)
B2: Es4.431 IgG antibody (antibody, V domains shown)
VH: EVQLLESGGGLVQPGGSLRLSCTASGFTFDTHVMSWVRQGPGKGLEWVSSISAASGTYYAGSVKGRFTISRDNSKNTLFLHMNSLRVEDTGVYYCANVVHRCTTNTCFRGADNWGQGTLVTVSS
VL: PSSLSASVGDRVTITCRASQSVDTYLNWYQQKPGETPKLLIYAASTLQSGVPSRFSGSGSGTTFTLTISSLQPEDFATYYCQQSYTTLMYTFGQGTKLEIK
notes: as for B1
B3: Es1.327 IgG antibody (antibody, V domains shown)
VH: QVQLVQSGGEVKKPGASVRVSCQTSGYSFTHYSITWVRQAPGQGLEWMGWITTYNGKTSYAQKFQDRVTMTADTSSRTAYVELRSLRSDDTAVYYCVRVWTGYGTNRGDYWGQGTLVTVSS
VL: PSSLYASVGDRVTITCRASQSINTFLNWYQQKPGNAPKLLIHAASTLESGVPSRFSGSGSGTDFTLTISSLQPEDFATYYCQQSDNNFALTFGGGTKVEIR
notes: as for B1

What was measured:
Conditions in all cases: both partners purified
[1] = target: T1, genotype 1d HEV-CA protein (1d Morocco) (Hepatitis E virus genotype 1d, Morocco, …, UniProt Q9W7W9, strain); experiment: SPR; Biacore 2000; purified IgG (10 μg/ml) captured on Protein G sensor chip; capsid proteins injected at 5 or 10 to 0.312 nM; HBS-EP (10 mM Hepes pH 7.2, 150 mM NaCl, 3 mM EDTA, 0.005% Tween 20); 22°C; Langmuir model, global analysis; apparent affinity
T1 construct: hepatitis E virus capsid protein (ORF2), genotype 1d, strain Morocco; the 3-2712 HEV-CA construct of the same list is ORF2 126-601; Igk leader at the N terminus of the construct; also called genotype 1 HEV-CA; source: Freestyle 293-F, transient transfection (PEI), purified from culture supernatant (Ni Sepharose Excel)

[2] = target: T2, HEV-C1 capsid protein (Rocahepevirus, rat hepatitis E virus) (Rocahepevirus (rat hepatitis E virus …, UniProt E0XL23, strain)); experiment: as above
T2 construct: capsid protein (ORF2) of Rocahepevirus HEV-C1 (rat hepatitis E virus); Igk leader at the N terminus of the construct; also called HEV-C1 protein; Rocahepevirus CA; source: Freestyle 293-F, transient transfection (PEI), purified from culture supernatant (Ni Sepharose Excel)

[3] = target: T3, genotype 3a HEV-CA protein (3a Meng) (Hepatitis E virus genotype 3a, swine …, UniProt Q6J8F7, strain); experiment: as above
T3 construct: also called genotype 3 HEV-CA; source: Freestyle 293-F, transient transfection (PEI), purified from culture supernatant (Ni Sepharose Excel)

[4] = target: T4, HEV-P, wild-type HEV-CA P domain protein, ORF2(455-601), genotype 3, 2712 strain (hepatitis E virus genotype 3, strain …, UniProt Q9YLQ9); experiment: ELISA; plates coated overnight with 125 ng per well of purified protein; serial dilutions of monoclonal antibodies in PBS, 2 hours; HRP anti-human IgG
T4 construct: source: Freestyle 293-F, transient transfection (PEI), purified from culture supernatant (Ni Sepharose Excel)
T4 sequence (Q9YLQ9 455-601): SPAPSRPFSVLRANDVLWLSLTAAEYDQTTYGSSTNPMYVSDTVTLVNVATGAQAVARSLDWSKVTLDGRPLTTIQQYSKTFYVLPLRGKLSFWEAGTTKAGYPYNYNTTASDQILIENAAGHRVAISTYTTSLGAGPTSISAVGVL

Binder | binding result [1] | Kd [2] [nM] | Kd [3] [nM] | binding result [4]
B1 | binds | 1.6 | 0.41 | 
B2 |  |  |  | binds
B3 |  |  |  | binds
